From publication doi:10.1101/2025.10.10.681541, “Visualizing the mechanism of quinol oxidation and inhibition of a bd-type oxidase using cryo-EM” (bioRxiv, 2025)

What was measured:
[1] = biological target: T1, E. coli cytochrome bd-I subunit CydA (E. coli, UniProt P0ABJ9 1-522); test: cryo-EM structure; purified Ecbd in LMNG micelles (unbound, Aurachin D bound) or in MSP1D1 PC nanodiscs doped with 5% menaquinone-9; monomeric and dimeric particles on the same grids; settings: both partners purified
T1 construct: CydA, subunit of E. coli cytochrome bd-I (Ecbd); harbours hemes b558, b595 and d and the Q-loop; Co-expressed and co-purified with CydB, CydX and CydH; never isolated on its own
T1 sequence: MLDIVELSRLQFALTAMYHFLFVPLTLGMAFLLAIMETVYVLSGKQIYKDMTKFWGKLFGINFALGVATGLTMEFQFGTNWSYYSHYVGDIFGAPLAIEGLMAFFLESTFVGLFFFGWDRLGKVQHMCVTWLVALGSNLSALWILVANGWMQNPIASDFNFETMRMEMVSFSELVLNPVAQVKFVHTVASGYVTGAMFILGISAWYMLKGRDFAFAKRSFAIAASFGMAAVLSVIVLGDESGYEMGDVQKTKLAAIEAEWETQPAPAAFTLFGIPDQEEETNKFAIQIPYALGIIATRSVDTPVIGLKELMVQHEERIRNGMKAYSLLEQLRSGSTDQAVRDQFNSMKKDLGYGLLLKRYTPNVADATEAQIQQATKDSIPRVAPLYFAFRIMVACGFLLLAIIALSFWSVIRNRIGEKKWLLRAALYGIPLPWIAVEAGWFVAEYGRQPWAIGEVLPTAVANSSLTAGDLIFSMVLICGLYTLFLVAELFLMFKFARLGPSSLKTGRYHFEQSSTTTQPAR

[2] = biological target: the molecule itself; test: as above

binding result [1]: binds
B1: E. coli cytochrome bd-I subunit CydX (natural protein)
chain: MWYFAWILGTLLACSFGVITALALEHVESGKAGQEDI
notes: CydX, single-helix subunit of E. coli cytochrome bd-I (Ecbd)
binding result [2]: binds
